Test results reported in IntAct's records for PubMed 21236255.

B1: Zinc-dependent sulfurtransferase SufU (Bacillus subtilis), O32163 (parent)
chain: MSFNANLDTLYRQVIMDHYKNPRNKGVLNDSIVVDMNNPTCGDRIRLTMKLDGDIVEDAKFEGEGCSISMASASMMTQAIKGKDIETALSMSKIFSDMMQGKEYDDSIDLGDIEALQGVSKFPARIKCATLSWKALEKGVAKEEGGN

Variants of: B1
Conditions: with sufs_bacsu sufS

Variant | effect of a mutation on the interaction
C66A | disrupting interaction

Variants of: B1
Conditions: with sufs_bacsu sufS
Remark: another data set of the same source

Variant | effect of a mutation on the interaction
C128A | disrupting interaction

Variants of: B1
Conditions: with sufs_bacsu sufS
Remark: another data set of the same source

Variant | effect of a mutation on the interaction
C41A | disrupting interaction

Variants of: B1
Conditions: with sufs_bacsu sufS
Remark: another data set of the same source

Variant | effect of a mutation on the interaction
C41A | increasing interaction
